Data published in patent US20130190246A1.
One block for each binder: values may come before it. Where no end group is shown, it is not given here. Side-chain parts run from the residue outwards. dermatan sulfate = dermatan sulfate, the glycan component of the peptidoglycan; BMPH = crosslinker coupling the Cys thiol to oxidized dermatan sulfate

Legend:
[1] = target: collagen (type and supplier not stated; Examples 11 and 12); experiment: SPR (Biacore 2000, CM-3 chip), collagen immobilized, peptide in flow at 100 µM to 1.5 µM
[2] = target: Type I fibrillar collagen (Chronolog, Havertown, Pa.); experiment: diffusion from fibrillar collagen coated plate at 37° C., loaded at 10 µM, biotin label detected with streptavidin-HRP
[3] = target: Type I fibrillar collagen (Chronolog, Havertown, Pa.); experiment: plate assay on fibrillar collagen, biotin labeled peptidoglycan detected with streptavidin-HRP, Abs 450 nm
[4] = target: Type I fibrillar collagen (Chronolog, Havertown, Pa.); experiment: plate binding assay on fibrillar collagen, biotin label detected with streptavidin-HRP, saturation curve fit

Kd [1]: 1200 nM
Binder: RRANAALKAGELYKSILYGC [peptide … (SILY)]

amount remaining bound after 1 week of extensive rinsing (equivalent concentration) [2]: 10 nM
EC50 (read off the curve) [3]: 20 nM
Kd [4]: 24 nM
B1: biotin labeled peptidoglycan DS-SILY18 (DS-SILY18-biotin) (peptide)
peptide: RRANAALKAGELYKSILYGC([BMPH-dermatan sulfate])
modifications: not fully specified (C-terminus); also: 18 SILY peptides per dermatan sulfate, 2 of them biotin labeled, biotin position not given here

EC50 (read off the curve) [3]: 100 nM
Kd [4]: 118 nM
B2: biotin labeled peptidoglycan DS-SILY4 (DS-SILY4-biotin) (peptide)
peptide: RRANAALKAGELYKSILYGC([BMPH-dermatan sulfate])
modifications: not fully specified (C-terminus); also: 4 SILY peptides per dermatan sulfate, biotin label on every peptide, position not given here
